To fix the notation:
B1: 71 (protein, listed as Burkholderia dolosa)
chain: MARAGHRAARTRQSRPGDRTMTCSCCMSAGRRRVLGAFAALAGAPKGPRAASAAQPAAASKPTRGDATARNRHSRALLPGKASASWSATKASGSGGAFAWDDTTFTFRTPAGGLGPLPMKFIDVDARLRDMDASGVDVQALSLSVPMAYWGDRPFNAKLARAWNTAASRVHVRAPDRFVVLATLPMLDATDAIDELERASELPGVRGVYMGTNIDNRDLDDPRFAPVFARIEQLGLPVFLHPQQTVGGARLGDFYLSNLLGNPFDTAIAASHLILGGVLDRHPALHFTLPHAGGALPILVGRLDAGWTVRAETRRLAHQPSGYLRRFSYDTVSHSGPVLNFLIENVGIDRLVLGSDYCFDMGYEQPVRFLDRLDLTPDERAMVIGGNAGRLLRI
B2: 58 (protein)
chain: MARVIALEEHYATTEFLRGPGTWLASRPGIVEPAGDLGDGRIAAMDQAGVDLAVLSLAAPGVEQLDPDDAVRLARDCNDQLAAAVRRYPDRLAGFATVPTSAPDRAADELERAVRGLGFPGAVINGHSRGRYLDDPFFEPVLARAAELQAPIYLHPTIPPAGVIESSYAGFAEPVTFALATVGWGWHINTATHALRMILGGVFDRHPSLQMIIGHMGEATSFMLPRFDATLKPELTGLNHPVSSYLRENFHYTFANFNDHATYANLVAQVGIERVAFSADYPFGSMVDARAFLDGLPLSDDERAAISHRNAEKLLGL
modifications: Mycobacterium colombiense
B3: 62 (protein)
chain: MAVGGKNFRDVTDQVWCPKKRIEDMDREGVDIQVLSPIPVTFSYWAKPEEAESMARIQNDFIAETVLAYPDRFVGLGTVPMQDGETAIREMERCITELNLHGIEIGTNVNGKNLDDPSFIEFFRMAEKWQVPIFIHPWETLGRDRMPHHNFMYTVGMPSETALAAATLIWSGIMEKFPRLKVCFAHGGGSFPYILPRLDQGWKVWPHLRLTTHPPSYYAKKFYFDSLNYDPINLKYMIERFGHEKIFMGSDYPFLLREVDPGKVIDETASLSEEQKAAMLGGNAAEFLNIDIKKRGVAYAESTNT
modifications: Bacillus thuringiensis serovar pulsiensis
B4: 73 (protein, listed as Sphaerobacter thermophilus)
chain: MARIDAHAHAQPPEYLDALLASGRYESVRDAEGRIVVRERGSRFLTITPQMHHPEQRVAEMDEAGIDMQILSVTTPQVYFLQGQAAVDLARRCNDYLADIVRSYPTRFRALASVPLTADPDAAVREFVRCLDDLGMVGAIIGSNIDGRPIDDPAFDAFYAEADRRATTLFIHPMVPAGIEVMNPYALAPLVGFMFDTTLAVSRLIFSGFFERYPRVKVLVGHLGAAVPYLAGRLDIGWRSYSDCQGIPHPPTEYIRRLYLDTVSFHAPALRCALETVGPDRIVFGSDYPHVIGDVGGAIASIQQALPATTHDGVLGHTAAELFGVSA
B5: 68 (protein, listed as Hoeflea phototrophica)
chain: MAIIDAHTHTLCPAVNEKVAGTIKPDSVPYQRDMSPESKEQDHTQFPELKIMFNQVERRLADMARMGIDRQVIAPAPGQQHYWAEPKLLAEISALQNDHVAELVARAPDRFAGIGTLPMTDPDAAVAEITRATRELGLRVFQIDSRVMERELSDASLDPIYAALEAAGAGLMIHPLGFSNGERLTPFFMVNSVAQPLEELLAFNHLVFGGVLDRFPKLKVYIAHGGGFAPFYIGRFDHAWKVRPEVNRLTPSAPSTYLRRIYFDTCVYRTDHIETLVRTVGADRVMLGSDYPFDMGDTDPLGLLNACQGLSDDEKATISSKVAIDFFGLET
B6: 74 (protein, listed as Ramlibacter tataouinensis)
chain: MATVIDVHTHMFTTKWLELLKKEGGQYNIQTRPDGQQEIFRGNTPVVIPQKGHFDWKLRIQHMDQAGIDVSVVSLTCPNVYWGGEDVSVRAAREANDNVAQAQTAYPDRIRWFASLPWEYMATVIDVHTHMFTTKWLELLKKEGGQYNIQTRPDGQQEIFRGNTPVVIPQKGHFDWKLRIQHMDQAGIDVSVVSLTCPNVYWGGEDVSVRAAREANDNVAQAQTAYPDRIRWFASLPWEYPQRAVEELERSCAQGAAGVMVLANVAGRSLTDPLFAPVWAEIDRRALPVLVHPTDPPGVDLMDMTKFDLSWSVGFMFDTTLAITRMIFEGFFDRYPNLRIIASHGGGTLPYLVGRFEKGDEVELASRRQMKRKPTDYLRHIHYDCITYNLGALQYLISVVGAGQVMFGTDWPHWVHDTRGAFANTAQLPQEQTRAVRGANAQRLFKL
B7: 75 (protein, listed as Ectocarpus siliculosus)
chain: MAKIDSYTHFACPAFMDHLEAESGHPMVFRGLFSSIPELSDIDLRIRYMDEHGIDVHCLVPLPWLECEPGLHADEGKALEACRIANDEMARVVARFPDRLIGVALIPTTTEQAMIQETTRAVKELGMAGVALFVGPTAKPPDMACFEGLYRTCEELGAVVWMHPCRPQSYADYDSYKGEGSKHQIWNTFGWIYDTSVAMVHIALAGVFRRYPGLKVVTHHHGAMVPFFTARFDTQRRNFQEVEGDDLLEDLRLFYCDTATFGESAANIQQAIDFFGKSQVLFGTDTPMDMGTRGMFTRTTIASVEALGAAPEDKESFYAGNVLDMLGERFAGISGARGAVAARPKGDSTRIAASL
B8: 60 (protein, listed as Catenulispora acidiphila)
chain: MARGFVRTAVVPGFWDAGWRGAGQPGGMRVDVHAHLFPAAYLDLLDDFRQDGGVGTREVRALGGGDGERELRLRLAAMDAVGVDVQLLSTCPQGPYTGDPTAAVEAARCANVALAQTVAQYPERLRALAALPLPHILASVDELNRAMEQDGMLGAAVGTSILGRPLSHPDFEPLFAALNRRKGVLFVHPIGESAGSPLMQASKLDRVIGYAAEVSTAILQLFQAGLTVKYPDIRIIAPHMGGYLPFLIQRLDRHRDWYLPKDAPSAGQLMRGIAYDTANPLPAALRLTAEVVGPERLLLGTDYPFEQGPSLRDHIEYILAAGLPEAQAKMIVDVNAADFLDMRSGAEQPPV
B9: 59 (protein)
chain: MAPSVIDAHAHFLPGSLVTALRSRSDAPDIRTDSNGGESFGIYRTRMPYGRTYDALDVRLARMDELGVDRQILSLPGLFGIDSRPVSQALPLVRAFNDGVADLVRKHPDRFSGIAALPLADLDAAQEEYRRARGDLGLSGLILPGDTFVSVAAAERVRPLFELAATIGGLIFVHPGPLPDETGSAVDAPAPHTDSVVHRRVTVDIQNRMTEVMVTLALTDFLAPYPSVPVQVANLGGSLPFVIERMDHVYALRNPEAPPPSLSLRSLYVDAASLGPRAIALAAEVYGADRVLFGSDYPIFDDGRCLDAVRQTRLSPDARALIAGGNAARMLTQT
modifications: alpha proteobacterium
B10: 61 (protein, listed as Gordonia amarae)
chain: MATGAGSGVPSPADRVIVRSPGVIDVHAHAVLPMSLGCAGAAGPEIGYREDGSPFFRVGEYVLNGVRYEGSAFMDPEVRVAAMDAAGIGLQMISPNPITYFTRLDARSATDYARAHNDAIAEAAGRHPGRLVGAAQLPMQDVPAAIAELERSVRELGLVAAYIDTDIGDRTLDAPELDDFYSAAVELDVPVFIHPSPVGQEGPPDDTRLRRFDLDLLLGFSYDETLAVAALVFGGVLERHPALDVCLSHGGGTLAFVAGRFARAVAKPRAWVPEFLVENGIESYLRRLWLDTHVHSAGSLRLLIDTVGTDRLVFGTNFAGWDADGATEVDALGDLRETTTANAAHLLRLGRA
B11: 70 (protein, listed as Alicyclobacillus acidocaldarius)
chain: MAIEPNRAADVHTHFLPTEVLEFLKREPRIQVDLERRAPDKEPFLTVEGRWSFELKRMFVDFEAFASAYRQAGIGLALVSPLPQLFVYHLPAEMGAQVAEVYNDALRDVLAPHRERFRPLATLPLADPTAAARELERRMDEGFVGAIVGPGVGEALIGDEAFWPLWEVADARRAVLFLHPLLHADPRAARLMLPNLVGVPWETTLAAAHLVLSGLLDRYPGARVLLAHGGGFLPYQIGRIEQGYDVWPQVRGRLQDRPTAYLRRMFYDNVLWSDAALRCLIDVVGADRVLAGSDFPFDLSAWPPRPGADVSVLAGGSGREGRLS
B12: 2 (protein, listed as Serratia sp.)
chain: MAKIICLEEHTLDKALVMASMPAALEQAPFLSDWGKTVTDGNLPDRSRPQIEKNDLINIKGADIGRGRLDDMDVAGITMQVLSVGGFPHLISAAEGVDLNRAANDRLADAVNAHPDRFAAFATLPWAQPDSAEKELERAVKELGFKGALLNGRPSTHFLDHPDYDGLLARFNALGVPLYLHPGLPVRSVQQAYYGGFSDEVTARLSMFGWGWHHEAGIHLLRLILSGAFDKYPNLQVISGHWGEMLPFWLQRLDDSLPQAATGLRRTIAQTFKEQVYVTPSGMLTLPHFQFIYALLGAERIIFSVDYPYQTLDGVKAFIQSLPVPEEAKEAIAFRNAERLLGLTS
B13: 69 (protein, listed as Microbacterium testaceum)
chain: MATSTEGQDVTDVHAHLLMPGLHAEVERRVPDEVQAAADLELRRNGLASLQASGRMIGERFPRLTDVRARLAAMDEQGVDRQWVSPSPNHFYPWANEGLATWASGEANRLIAEHVALAPDRLVGLGVVPLQHPHLVVDALDDAVLGRGLAGVEISSFAGDVELSDERLESFWARAAELRAVVFLHPFGCSLDERLDRFYLSNTVGQPTENAVALSHLIFSGVLDRHPGLRLIAAHGGGYLPTAIGRSDRAWRVRPEARGCAHAPSTYLSKLWFDTVVHDERALRWLVEAAGADRVLLGSDFPFDMGLDDPVAFVRGAGLQDAEVSGILGGNAAELLRTRVHA
B14: 64 (protein, listed as Achromobacter piechaudii)
chain: MAIQKIDMHAHFFPPITRQEAAALDPVNAPWLRPDADGATGQIMAGEREFRPVDATLWDPALRIEQMDRHGVDVQILCATPIMFGYTYPARPAADWAARMNDLALEHCAYAPSRLKALAQVPLQDLELACQEASRARAAGHLGVQIGNHVGPRDLDDETLVQFLIHCANNDIPVLVHPWDMMTDGRMKKWMLPWLVSMPAETQLGILSLILSGAFERIPRSLKLCFAHGGGSFAYLLGRVDNAWRHRDIIRQDCPQLPSSYTDRFYTDSAVFDPRSLRLLIDVMGEDRVLLGSDYPYPLGEQEVGRLVAHAELVPEVQQKILFRNTMTFFGLQPGLQPGLQS
B15: 72 (protein)
chain: MADCPCCVSPKRRRLLGSVSAIAAGMMAGLPALAAQPSTAAAGTGKPLSIDIHAHYYSESFLGLLGGEGKQFGGHFFRNDDSFTFQTPAGGLGPLPMKFIDVEQRVRDMDNSGVDVQAISLSVPMVYWADRTLNAKLARAWNTAASDVHRKHPTRFVVLATLPMLNANDAIDELEFAAGLPGVRGIYMGTNINNRDLDDPLFSPIFKRIEQLNLPIFLHPQQTVGGARLADFYLSNLLGNPFDTAIAASHLILGGVLDKYPALHFSLPHAGGALPILVGRIDAGWSMRSETKRVAQKPSSYLRRFSYDTISHSGPTLDFLIRNIGADRLVLGSDYCFDMGYEQPVRFLDRLALPDDQKRMVVGGNAARLLNL
modifications: Cupriavidus necator

This assay can be described thus: Saturation mutagenesis of SEQ ID NO:109: dicamba decarboxylation activity of point mutants (CO2 released), fold of backbone (Tables 7, 8, Megatable 1). The conditions noted are these: decarboxylation activity (CO2 released) of point mutant vs unmutated backbone protein; backbone SEQ ID NO: 109.
In the case of B1, the “Fold Activity” value was 1.5 fold.

In the case of B2, the “Fold Activity” value stood at 1.5 fold.

As for B3, the “Fold Activity” value came to 1 fold. On to B4, for which the “Fold Activity” value is 1.2 fold. Take B5: the “Fold Activity” value is 1.3 fold.

Consider B6, for which the “Fold Activity” value worked out at 1.4 fold. On to B7, for which the “Fold Activity” value is 1.7 fold. On to B8, for which the “Fold Activity” value amounted to 1.6 fold. As to B9, the “Fold Activity” value is 0.9 fold. With B10 the figure was 2.4 fold; with B11, 1.7 fold; with B12, 1.1 fold. B13: the “Fold Activity” value stood at 1.3 fold. With B14 the figure was 1.8 fold; with B15, 1.2 fold.

(Values after patent US20160040149A1, “Compositions Having Dicamba Decarboxylase Activity and Methods of Use” (priority 2013, published 2016).)
